Laboratory results reported in PMC10235969 (Proceedings of the National Academy of Sciences of the …, 2023).

T1: Drosophila melanogaster RMC1 (Drosophila melanogaster, UniProt Q9VRX1 1-642)
T1 sequence: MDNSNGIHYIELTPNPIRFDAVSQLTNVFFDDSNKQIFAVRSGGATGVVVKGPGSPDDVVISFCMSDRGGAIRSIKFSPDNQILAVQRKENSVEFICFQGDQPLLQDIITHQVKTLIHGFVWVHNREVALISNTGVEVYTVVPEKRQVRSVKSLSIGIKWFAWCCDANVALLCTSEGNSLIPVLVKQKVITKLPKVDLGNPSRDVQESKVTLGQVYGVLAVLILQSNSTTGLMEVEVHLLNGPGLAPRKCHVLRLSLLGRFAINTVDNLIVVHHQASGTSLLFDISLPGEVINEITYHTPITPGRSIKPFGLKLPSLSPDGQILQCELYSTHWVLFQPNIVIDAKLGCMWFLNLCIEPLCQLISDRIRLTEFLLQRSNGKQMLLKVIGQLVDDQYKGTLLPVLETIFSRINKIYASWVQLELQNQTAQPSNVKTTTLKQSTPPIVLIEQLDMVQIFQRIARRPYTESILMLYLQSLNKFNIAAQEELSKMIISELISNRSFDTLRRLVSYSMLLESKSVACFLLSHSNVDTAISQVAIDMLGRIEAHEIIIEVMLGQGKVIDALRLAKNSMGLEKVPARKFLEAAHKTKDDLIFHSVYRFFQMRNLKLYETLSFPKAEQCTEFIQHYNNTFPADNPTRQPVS

B1: Drosophila melanogaster Mon1 (natural protein)
chain: MEVEQTSVRSDTNSTCEYLDAEGDPESPNLYQEADPDQEAEQQNHSIISELRDGLGTMRDNSALSPEPGQENKGLAASVESLALSTSTSAKTEDSIGGGLEEEYDYQHDSLWQGQKKHIFILSEAGKPIFSLHGNEDKLATLFGVIQALVSFVQMGQDAITSIHAGGIKFAFMQRSSLILVAASRSNMSVQQLQLQLGDVYNQILSILTYSHMTKIFERRKNFDLRRLLSGSERLFYNLLANDSSSAKVSNNIFTFLTNSIRVFPLPTTIRSQITSAIQSNCSKIKNLVFAVLIANNKLIALVRMKKYSIHPADLRLIFNLVECSESFKSSENWSPICLPKFDMNGYLHAHVSYLADDCQACLLLLSVDRDAFFTLAEAKAKITEKLRKSHCLEAINEELQQPFNAKLYQQVVGIPELRHFLYKPKSTAQLLCPMLRHPYKSLTELERLEAIYCDLLHRIHNSSRPLKLIYEMKEREVVLAWATGTYELYAIFEPVVDKATVIKYVDKLIKWIEKEYDVYFIRNHATF

What was measured:
[1] = target: T1, Drosophila melanogaster RMC1; experiment: cryo-EM structure
[2] = target: B1; experiment: cryo-EM structure

binding result [1]	binding result [2]	Binder
binds		B1
binds	binds	Drosophila melanogaster Ccz1 (natural protein) MAKLLQRVEITLRSFYIFNSTFGQVEGEEHKKVLFYHPNDIELNTKIKDVGLSEAIIRFTGTFTSEDDCQALHTQKTTQLFYQPEPGYWLVLVLNVPKEVRLKEGVEVADYRGAEISDRIYRAILRQCYQMFRFQNGCFSSCGSEEPNPDKRRELLCQKLLQFYDQHLTNLRDPAQCDIIDMLHSIQYLPLDKTLFLRAQNFGTLCETFPDIKESIMLYQEQVLCGGKLSPEDLHCVHSYVVQHVLKVEASSSTIAVSPSLKRSISECQVGGFVRSRQKVAGDEHDAVNEEDHPMKVYVTLDKEAKPYYLLIYRALHITLCLFLNADQVAPKQDLYDDLHAYMAPQLTSLARDISSELTKEAVGAAGQDNSSGNSETAPKYLFINEQSLQHHTNFQRHLPQGLPRNVLSIIADLANGSGKAEMESAPAEEVQVKTTNDYWIVKRRCNYRQYYVILCNSKATLLDVTQEARRIFEQELTDDVFFDK
